Measured values reported in patent publication US20250163122A1, “COMPOSITIONS AND METHODS FOR TREATING AIRWAY MUCUS DYSFUNCTION” (BOARD OF REGENTS, THE UNIVERSITY OF TEXAS SYSTEM, priority 2022, published 2025).
Bridges are numbered along the chain shown (N, C = ends). [ ]: non-standard residue; d: D form. S5 = C=CCCC[C@](C)(N)C(=O)O

Tests used:
[1] = test system: mouse airway epithelial cells; assay: Mucin secretion without secretagogue after peptide aerosol in mice with mucous metaplasia; assay type: in vivo
Description: To investigate whether SP9 could have therapeutic benefit in vivo, SP9 conjugated to CPPs and fluorophores was introduced into mouse airways using a microsprayer inserted into the distal trachea under direct visualization with a laryngoscope. […] All subsequent studies of airway mucin secretion were therefore performed in the distal axial bronchus. […] This effect was not observed with the injection of buffer alone.
The peptide solution was injected into the airway under pressure to generate a droplet aerosol. A high concentration of peptides was used in these experiments in part because the solution is expected to be in contact with the airway epithelium only briefly and to mostly end up in the alveolar region.

[2] = test system: Muc5ac secretion from HAECs; assay: Mucin (Muc5ac) secretion assay in HAECs; assay type: cell-based, human; settings: for reduction of stimulated (IL-13+ATP) Muc5ac secretion / effect on stimulated secretion: 10 μM peptide, 30 min pre-incubation, metaplastic conditions; for reduction of stimulated Muc5ac secretion: metaplastic HAECs
Description: Cell culture. […] Growth medium was replaced every two days. […] The apical medium was replaced after 48 h.
Mucin secretion assay in HAECs. […] In brief, for the 24 h peptide treatment, 20 μl of DMEM+/−100 μM peptides was added to the apical surface 24 h before stimulation. On the day of the assay, cells were washed 5 times with 100 μl DMEM for 1 h for each wash on the apical side. Apical supernatants were collected after every wash ([…]), then 100 μl of DMEM+/−100 μM peptides was added to the apical surface and HAECs incubated for 15 min before collecting the supernatant (baseline wash). HAECs were then incubated for an additional 15 min with 100 μl DMEM+/−100 μM ATP (Sigma) before collection of supernatants (experimental washes). Following sample collection, cells were lysed in 100 μl of lysis buffer (lysate) containing 50 mM Tris-HCl pH 7.2, 1 mM EDTA, 1 mM EGTA, 1% Triton-X (Sigma), protease inhibitor cOmplete mini EDTA-free and phosphatase inhibitor PhosSTOP (Roche, Germany). The protocol was adapted for 30 min peptide treatment as follows. After wash 5, 100 μl of DMEM+/−10 μM or 100 μM of peptides was added to the apical surface and HAECs incubated for 30 min (baseline wash). HAECs were then incubated for 30 min with 100 μl DMEM+/−100 μM ATP to collect experimental washes.
All samples were diluted 1:10 in PBS (washes and cell lysates) and 50 μl of each sample were vacuum-aspirated onto a 0.45 μm pore nitrocellulose membrane using the Bio-Dot® MicrofiltrationApparatus (Bio-Rad). […] All steps were performed at room temperature. Fluorescent signals were acquired using the Odyssey® Fc Imaging System (Li-Cor®, USA) and quantified using ImageJ (v.2.0.0; NIH, USA). Equal volumes of samples were loaded on the gels for control and peptide treatments. […] Stimulated secretion is therefore normalized to baseline secretion within individual filters to account for filter to filter heterogeneities.

[3] = test system: fractional secretion of intracellular mucin in mouse airways; assay: Stimulated mucin secretion in mice (IL-13, then methacholine); assay type: in vivo; settings: pretreatment, aerosol 200 μM 30 min before secretagogue, IL-13 mice
Description: Mucin secretion and airway mucus occlusion in mice. The efficiency of stimulated mucin secretion and the extent of mucus accumulation in the airway lumen of Syt2 mutant mice were measured as described previously (Jaramillo et al, 2019). Briefly, to increase intracellular mucin content (i.e., induce mucous metaplasia), 3 μg IL-13 (BioLegend) in 40 μl PBS was instilled every other day×3 into the posterior pharynx of mice under isoflurane anesthesia to be aspirated during inhalation. […] Fractional mucin secretion was calculated as the percentage […] mucin content of mice of the same genotype treated only with IL-13. To measure intracellular airway epithelial mucin content, lungs were inflated via the trachea with 10% neutral buffered formalin to 20 cm water pressure for 24 h at 4° C., then embedded in paraffin. […] Images were acquired using an upright microscope (Olympus BX 60) with a ×40 NA 0.75 objective lens, and intracellular mucin was measured around the circumferential section of the axial bronchus using ImagePro (Media Cybernetics). Images were analyzed by investigators blinded to mouse genotype and treatment, and data are presented as the epithelial mucin volume density, signifying the measured volume of mucin overlying a unit area of epithelial baseline lamina. […]

[4] = test system: airway lumenal mucus in mouse lung; assay: Airway lumenal mucus accumulation in mice; assay type: in vivo; settings: pretreatment, aerosol 200 μM, IL-13 then methacholine
Description: To measure airway lumenal mucus content, mucous metaplasia was induced as above, then mucin secretion and bronchoconstriction were induced by exposure for 10 min to an aerosol of 150 mM methacholine. Lungs were harvested and fixed by immersion for 48 h at 4° C. to avoid displacement of lumenal mucus and using methanol-based Carnoy's solution (methacarn) for fixation to minimize changes in mucus volume. A single transverse 5 μm section was taken through the axial bronchus of the left lung between lateral branches 1 and 2 and stained with PAFS as above to evaluate intracellular mucin to ensure secretion had been stimulated. […]
To measure the efficiency of stimulated mucin secretion and the extent of mucus accumulation in the airway lumen of WT mice treated with peptides, the same procedures as those used for analysis of Syt2 mutant mice were followed, except that both outcomes were measured in the same mouse by fixation of the left lung by inflation with formalin to measure mucin secretion and fixation of the right lung by immersion in methacarn to measure mucus accumulation. […] In addition, a MicroSprayer Aerosolizer (Penn-Century) was used for peptide delivery to the airways, secretion was measured in the left axial bronchus at a site 3 mm distal to the site used in the Syt2 mutant mice, and mucus accumulation was measured in the right caudal lobe.

Syt2 = Syt2 (UniProt P29101 1-422, limits assumed); assay: cell-based or functional assay
Syt2, sequence (P29101 whole entry): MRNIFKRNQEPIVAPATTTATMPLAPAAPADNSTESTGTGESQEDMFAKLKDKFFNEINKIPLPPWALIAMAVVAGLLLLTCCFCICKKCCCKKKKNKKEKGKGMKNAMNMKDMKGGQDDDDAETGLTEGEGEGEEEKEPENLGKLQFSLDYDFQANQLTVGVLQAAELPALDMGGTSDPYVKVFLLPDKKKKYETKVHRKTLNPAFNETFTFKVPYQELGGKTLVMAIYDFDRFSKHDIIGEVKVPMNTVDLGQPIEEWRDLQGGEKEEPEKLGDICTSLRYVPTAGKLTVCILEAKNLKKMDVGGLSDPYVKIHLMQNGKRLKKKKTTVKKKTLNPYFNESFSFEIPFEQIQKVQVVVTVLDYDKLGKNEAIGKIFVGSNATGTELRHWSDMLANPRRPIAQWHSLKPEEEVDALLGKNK

[5] = 100 μM peptide for 24 h before stimulation

H2N-GRKKRRQRRRPPQEE(S5)KDA(S5)IR(S5)LVM(S5)DEQ-(C/Cy3Mal)-amide (H-GRKKRRQRRRPPQEE[S5]KDA[S5]IR[S5]LVM[S5]DEQ-{C(Cy3 maleimide)-NH2}; staple 16-20, 23-27) [TAT-SP9-Cy3]
intracellular mucin content of cells that internalize the peptide ([1]; 300 μM aerosolized, left axial bronchus, IL-13 mouse, PAFS): low intracellular mucin content | mucin secretion after peptide aerosol without secretagogue ([1]; aerosolized 1 mM, left axial bronchus, IL-13 mice): extensive apocrine mucin secretion | mucin secretion of Cy3-labeled cells without a secretagogue (side-effect) ([1]; peptide introduced into airways of mice with mucous metaplasia): had secreted their mucin stores without stimulation | reduction of stimulated (IL-13+ATP) Muc5ac secretion [2]: 86% | reduction of stimulated Muc5ac secretion [2, 5]: 83%

Ac-EE(S5)KDA(S5)IR(S5)LVM(S5)DEQ-(C/Cy3Mal)-amide (Ac-EE[S5]KDA[S5]IR[S5]LVM[S5]DEQC-NH2; staple 10-14, 3-7; also: Cy3 maleimide on C-terminal Cys) [SP9-Cy3]
effect on stimulated secretion [2]: no effect | effect on ATP-stimulated secretion [2, 5]: no effect

H2N-RQIKIWFQNRRMKWKKEESKDAGIRTLVMLDEQ-(C/Cy3Mal)-amide (H-RQIKIWFQNRRMKWKKEESKDAGIRTLVMLDEQ-{C(Cy3 maleimide)-NH2}) [PEN-P9-Cy3, non-stapled control peptide with penetratin and Cy3, reference compound]
effect on fractional secretion of intracellular mucin stimulated by methacholine [3]: no effect | effect on airway lumenal mucus accumulation in the right lung [4]: no effect | effect on stimulated secretion [2]: no effect

H2N-GRKKRRQRRRPPQEESKDAGIRTLVMLDEQ-(C/Cy3Mal)-amide (H-GRKKRRQRRRPPQEESKDAGIRTLVMLDEQ-{C(Cy3 maleimide)-NH2}) [TAT-P9-Cy3, non-stapled control peptide with TAT and Cy3, reference compound]
effect on stimulated secretion [2]: no effect

H2N-RQIKIWFQNRRMKWKKEE(S5)KDA(S5)IR(S5)LVM(S5)DEQ-(C/Cy3Mal)-amide [PEN-SP9-Cy3]
mucin secretion of Cy3-labeled cells without a secretagogue (side-effect) ([1]; mouse, in vivo): did not show this problem | reduction of fractional secretion of intracellular mucin stimulated by methacholine [3]: 82.3% | reduction of airway lumenal mucus accumulation in the right lung [4]: 33.1% | reduction of stimulated (IL-13+ATP) Muc5ac secretion [2]: 48% | reduction of stimulated Muc5ac secretion [2, 5]: 73%

B1: SP1 (peptide)
peptide: Ac-SKD[S5]GIR[S5]LVMLDE[S5]GEQ[S5]DR-NH2
modifications: staple 15-19, 4-8
SMILES: CC[C@H](C)[C@@H]1NC(=O)CNC(=O)[C@@](C)(NC(=O)[C@H](CC(=O)O)NC(=O)[C@H](CCCCN)NC(=O)[C@H](CO)NC(C)=O)CCCC=CCCC[C@@](C)(C(=O)N[C@@H](CC(C)C)C(=O)N[C@H](C(=O)N[C@@H](CCSC)C(=O)N[C@@H](CC(C)C)C(=O)N[C@@H](CC(=O)O)C(=O)N[C@@H](CCC(=O)O)C(=O)N[C@@]2(C)CCCC=CCCC[C@@](C)(C(=O)N[C@@H](CC(=O)O)C(=O)N[C@@H](CCCNC(=N)N)C(N)=O)NC(=O)[C@H](CCC(N)=O)NC(=O)[C@H](CCC(=O)O)NC(=O)CNC2=O)C(C)C)NC(=O)[C@H](CCCNC(=N)N)NC1=O
inhibition of Ca2+-independent fusion probability, single vesicle content mixing with airway epithelial SNAREs and Syt2 (Syt2): ≤ 40% | inhibition of Ca2+-triggered cumulative fusion probability, single vesicle content mixing with airway epithelial SNAREs and Syt2 (Syt2): ≤ 70%

B2: SP9 (peptide)
peptide: Ac-EE[S5]KDA[S5]IR[S5]LVM[S5]DEQC-NH2
modifications: staple 10-14, 3-7
SMILES: CC[C@H](C)[C@H](NC(=O)[C@]1(C)CCCC=CCCC[C@](C)(NC(=O)[C@H](CCC(=O)O)NC(=O)[C@H](CCC(=O)O)NC(C)=O)C(=O)N[C@@H](CCCCN)C(=O)N[C@@H](CC(=O)O)C(=O)N[C@@H](C)C(=O)N1)C(=O)N[C@@H](CCCNC(=N)N)C(=O)N[C@@]1(C)CCCC=CCCC[C@@](C)(C(=O)N[C@@H](CC(=O)O)C(=O)N[C@@H](CCC(=O)O)C(=O)N[C@@H](CCC(N)=O)C(=O)N[C@@H](CS)C(N)=O)NC(=O)[C@H](CCSC)NC(=O)[C@H](C(C)C)NC(=O)[C@H](CC(C)C)NC1=O
inhibition of Ca2+-independent fusion probability, single vesicle content mixing with airway epithelial SNAREs and Syt2 (Syt2): ≤ 40% | inhibition of Ca2+-triggered cumulative fusion probability, single vesicle content mixing with airway epithelial SNAREs and Syt2 (Syt2): ≤ 70%

B3: SP10 (peptide)
peptide: Ac-SKD[S5]GIR[S5]LV[S5]LDE[S5]GEQL-NH2
modifications: staple 11-15, 4-8
SMILES: CC[C@H](C)[C@@H]1NC(=O)CNC(=O)[C@@](C)(NC(=O)[C@H](CC(=O)O)NC(=O)[C@H](CCCCN)NC(=O)[C@H](CO)NC(C)=O)CCCC=CCCC[C@@](C)(C(=O)N[C@@H](CC(C)C)C(=O)N[C@H](C(=O)N[C@@]2(C)CCCC=CCCC[C@@](C)(C(=O)NCC(=O)N[C@@H](CCC(=O)O)C(=O)N[C@@H](CCC(N)=O)C(=O)N[C@@H](CC(C)C)C(N)=O)NC(=O)[C@H](CCC(=O)O)NC(=O)[C@H](CC(=O)O)NC(=O)[C@H](CC(C)C)NC2=O)C(C)C)NC(=O)[C@H](CCCNC(=N)N)NC1=O
inhibition of Ca2+-independent fusion probability, single vesicle content mixing with airway epithelial SNAREs and Syt2 (Syt2): ≤ 40% | inhibition of Ca2+-triggered cumulative fusion probability, single vesicle content mixing with airway epithelial SNAREs and Syt2 (Syt2): ≤ 70%

B4: SP4 (peptide)
peptide: Ac-SKDA[S5]IRT[S5]VM[S5]DEQ[S5]EQL-NH2
modifications: staple 12-16, 5-9
SMILES: CC[C@H](C)[C@@H]1NC(=O)[C@@](C)(NC(=O)[C@H](C)NC(=O)[C@H](CC(=O)O)NC(=O)[C@H](CCCCN)NC(=O)[C@H](CO)NC(C)=O)CCCC=CCCC[C@@](C)(C(=O)N[C@H](C(=O)N[C@@H](CCSC)C(=O)N[C@@]2(C)CCCC=CCCC[C@@](C)(C(=O)N[C@@H](CCC(=O)O)C(=O)N[C@@H](CCC(N)=O)C(=O)N[C@@H](CC(C)C)C(N)=O)NC(=O)[C@H](CCC(N)=O)NC(=O)[C@H](CCC(=O)O)NC(=O)[C@H](CC(=O)O)NC2=O)C(C)C)NC(=O)[C@H]([C@@H](C)O)NC(=O)[C@H](CCCNC(=N)N)NC1=O
inhibition of Ca2+-independent fusion probability, single vesicle content mixing with airway epithelial SNAREs and Syt2 (Syt2): ≤ 40% | inhibition of Ca2+-triggered cumulative fusion probability, single vesicle content mixing with airway epithelial SNAREs and Syt2 (Syt2): ≤ 70%
